# Experimental data as given in US20050266512.
# Test system: native proaerolysin
substance,measurement,value
trypsin,decrease in absorbance (erythrocyte lysis in response to channel formation by active aerolysin),The solid line represents native proaerolysin activated with trypsin.
